Reference: article PMC4633494, “An antennal carboxylesterase from Drosophila melanogaster, esterase 6, is a candidate odorant-degrading enzyme toward food odorants” (Frontiers in Physiology, 2015)

Assays:
Conditions in all cases: concentrated culture medium, enzyme titrated, GC-MS assay at pH 8.0, 25 mM Tris-HCl, 200 µM substrate, BSA, 5% ethanol
[1] = substrate: CCCOC(=O)CCC; experiment: cells, lysate or membranes
[2] = substrate: CCCCCCCCOC(=O)CC; experiment: competitive inhibition of 4-nitrophenyl acetate hydrolysis (Ki taken as Km); kcat from GC-MS substrate loss; format: biochemical, Drosophila melanogaster
Description: (§1) competitive inhibition of 4-nitrophenyl acetate hydrolysis (Ki taken as Km); kcat from GC-MS substrate loss on EST-6 (EST-6^F), esterase 6

[3] = substrate: CCCCCOC(C)=O; experiment: as above; format: biochemical, Drosophila melanogaster
Description: as §1

B1: EST-6 (EST-6^F), esterase 6 (Drosophila melanogaster) (protein)
chain: SDTDDPLLVQLPQGKLRGRDNGSYYSYESIPYAEPPTGDLRFEAPEPYKQKWSDIFDATKTPVACLQWDQFTPGANKLVGEEDCLTVSVYKPKNSKRNSFPVVAHIHGGAFMFGAAWQNGHENVMREGKFILVKISYRLGPLGFVSTGDRDLPGNYGLKDQRLALKWIKQNIASFGGEPQNVLLVGHSAGGASVHLQMLREDFGQLARAAFSFSGNALDPWVIQKGARGRAFELGRNVGCESAEDSTSLKKCLKSKPASELVTAVRKFLIFSYVPFAPFSPVLEPSDAPDAIITQDPRDVIKSGKFGQVPWAVSYVTEDGGYNAALLLKERKSGIVIDDLNERWLELAPYLLFYRDTKTKKDMDDYSRKIKQEYIGNQRFDIESYSELQRLFTDILFKNSTQESLDLHRKYGKSPAYAYVYDNPAEKGIAQVLANRTDYDFGTVHGDDYFLIFENFVRDVEMRPDEQIISRNFINMLADFASSDNGSLKYGECDFKDNVGSEKFQLLAIYIDGCQNRQHVEFP
notes: natural allele expressed behind its own signal peptide (secreted) with BacuVance baculovirus system (Genscript); no tag told
With B1 the Km [1] was 18.3 mM, the kcat [1] was 1670 s⁻¹ and the Km [2] was 3.16 mM. It also gave a kcat [2] of 4520 ± 1680 s⁻¹, a Km [3] of 2.93 mM and a kcat [3] of 969 ± 215 s⁻¹.
